Experiment: label from the status in PepcDB records
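Further: failed if final PepcDB status was selected cloned or expressed and not failed if soluble or beyond.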

Row | Sequence | protein production
1 | MAFASLFTLPDYIAAVLDDVALMTKAAAKKTAGVAGDDLAPNANRVTGVSAERELPIVWPVAKGSFANKPVLVSAALLLSAFLPQLITPLLTAGGIYLCFEGVEKLLHKFLHRHDAHDDGGETAVNEQAKIKGAIRTDFILSAEIIIIALCVVEQYSLMTRSLVMAAIGIGMTVLVYGIVAVIVKLDDLGMLLMRRPQPRPFARFPARATLERWLDRVFRQPRCRAAFRFDCLRPALSLMNRFGRH | failed
2 | VQPLATQCFQLSNMFNPQTEEEVGWDTEIKDDVIEECNKHGGVIHIYVDKNSAQGNVYVKCPSIAAAIAAVNALHGRWFAGKMITAAYVPLPTYHNLFPDSMTATQLLVPSRR | not failed
3 | MNKITSAFIRVLRQSSSSGGTGNLLGRQLSYKSDLSLDKIYPGARLQIYTPPPPPSGSDKFSGFIPMDRLEITYSRSSGPGGQHVNTVNTKVDVRFKVAQADWIPEQTRQKLLKVLANRITKDGYFYIKSDLTRSQQMNLADALEKLRTIIRSQEAVAPAPPSEETLEKLRRRQERAVRERLQLKRGRAQVKADRQGPSGLDL | failed
4 | MSESCILFFVKYPEPGKVKTRLGEVVGNDKAAMLYRHFVQDMLQGLARLHADLHICYVPGDADLPEKFKAWLGPQHMFAAQQGLDLGERMKHAMQKAFDDGYDRVVLMGSDIPDYPCELVQKALNDLQHYDAAIGPAFDGGYYLIGFRKDSFCPDVFDGIRWGEADVYQPTVEKMRRARLEVLQLPDWNDVDTVWDLNVLYRTNKNSSFRRSSTYALLRENDALIRQYDIDLPGMAPVEKE | not failed
5 | MRSRGEPLPAGGRMKTLAFVALALAGISWGLGFPTGKLILRETDAAHMVLLRFLVAAVAAAPFALRRPEVRALFRSPIVLLAGALYGVAFLVQFEGLAHVSVTVAALLVGAMPALIAVSARVLGEKVSRLSWAGVAAATLGAALIAGKPDGASSPLGVALSIAALFLFLTWLLVLRRAPPAPNPMAIPAVSIIVAALVVLPIALIMHGPPKLALSAPAWTAIVAQGVLATLLATAAWQYGAAQVGAASAGVFINIEPLMGAACGVLLFGDHLTAALFAGGLLIIGGSFAVVMGERQAKPGEIQATVAPTP | failed
6 | MIPYVNEYDTPNCNTLAETAKKSIRTPESLGLDRCIQCGACTASCPAARFTDYSPRQIVKKVLENDRSVLESDMIWSCFYCYSCNMRCPRNNSPVTIVQVLRQMAINEGIGIGKLAYFLEIGECLAENGASKVPGAGVKNMERDLGERWIGIKRNLEPIRSELGLSPRDVRDTHGEVQAILESTGYFEREKWIKAGIQEKKLHGFLKADCSDEEKKNGDFCFESDREYTGQEAITV | failed
7 | MPLIVSSSIMIHAKLIYTFEDAQLDGQIVAALDVNTVANAVYAHNYGSNLVKTRNIQSLSVKEVTKLQANMLLMSPPCQPHTRQGLQRDTEDKRSDALTH | failed
8 | MNKKILTLLVLILSISSVLMLSKSITKKSKYKIIRDYFINSNYVLVKIENKDLKFTISKPIYDKKLNNYFFKGQTTSHFLISNNVDIAINTSPYEVKQNMFFPKGLYIYNKKMISKQINNYGEIVIKHNKIILNPKEDEIENCDYGFSGFFVLIKNGKYKKNFKETRHPRTIIGTDKNNKHLFLVTIEGRGVNNSKGASLNEAIDFALSYGMTNAINLDGGGSSTLVVKSNNAPYKLNFTANIFGQERPVPFHLGIKLPN | failed
9 | MPQWRVRMHSGGLELALVLMLAAIVAVPVFKRFGLGAVLAYLVAGVVLGPDGAGVVQDAERISGAAEIGVVMLLFVIGLELSPARLKVMRHSVFGAGATQVLVTAVILGGLLMAAQLGWKSALIVGVALALSSTAVGLQLLAERKALSSDYGRLAFAILLFQDLIAIPLLAAIPLLGGSKNATLQWQDVAKAVAALALVIVCGRFVLRHLFNVVARTRMPEVFTASALLVVLGTAWIMQEAGLSASLGAFIAGVLLADSEFRHELESQIEPFEGLLLGLFFISVGMGIDLHRVVAEPWLIAAGVAILLVVKFSLLVGIGSVAKLPLRSSLMLGSVLWLGGEFAFVVFNEADRVGLLEPANHDRLVAIVGVSMALTPLLLLGMQRILNGPLRARAPKTDRPFDTIDAQTPKVLVAGMGRFGQVVARLLTARHVPFVALEHNPDTVEDLRRFGSQLYYGDPTRPELLRAAGAERIKVFVIAVDDPETNIKTVRLIRRLYPQATVLARARNRQHAWKLMDLGAEPFREVFASSLELSERVLTSLGLGEALAHDHVKRFRQHDEDLLRRQHLVYDDEAKVIQTSRDARADLMNLFEADVRADVDGEPAPTLRER | failed
10 | MTDDLLKPNRPHPLFKLATELGPLLVFFIVNAKFHLFAATGAFMVAVVAAVIASYVVTRHVPVMALVTAVVVLVFGTLTLVLHDETFIKMKPTIVYSLFGAVLAGGLLFGRSFIAIMFDQVFNLTAAGWRKLTLRWALFFFAMALLNEAVWRTQSTDFWVNFKVFGVVPLTMLFALLQMPLTKRYAAEPATLEQSAADEGDVSGR | not failed
11 | MDFNYTIKALRTKKKLDAKPMTHTDFCYTIKALRSTKKLDAKPKPHTDFGYTIKVLRSRKKLELEPQLDLKSLSSVDLLEDTNSKTHTDFSYTIKASRSKKKLDTKSKTRTVFDYTIKAFRSKKKLDRKPKTHTDFGYTFKAMRSKKKLC | failed
12 | MEWGGLDERQICWQVNGRGGQGLAGCSFLRGVRKRSRPPRLLPSRPPAAMSTFERHIIKRLLKGFVLFVGALLVFFIVLHWVEYSDDFLDGGATIWEVFTVFYPNYVPEIIRLTSPLALFLSCIYLTGTLAQELQLVALQTSGVSLYQLMRPYLGVGLLVTVFMFGFNGWVVPKTNEVVVRYENEYLPGNQKSVQTSEIHRRNGPNSILSVGYYDADRERAHTVSLQQLAGDARLARRVDANRMEWDDSLEVWRLDDVTRRTFVKGETQRKRTIASLDTTLQVYPRDLARSKNDVAAMTIPAAAEYLAALRRSGVGGLTRPLVAYYNKFAYPFANLLLVLIGVPIASTRRRGGQAVRFAIGLLIAFVYLSVQKLAEPLGYAGTLSPAWTAWLPHLTFAVVALLVLWWARK | failed
13 | ASDFQTGIHKIVIQQSGDTDSFEVSVSIGGADKGGPAKLYNDKGEYIGDSYSAQIRTATMSCCTNGNAFFMTCAGSVSSISEAGKRLHITVIGYIDDKEVNRLEKEYITDGNTLIETFSVSTKEI | not failed
14 | MENIKNPKNADDCSDSISKNSHQGVDDSLNQSRSYVCSFCIRGFSNAQALGGHMNIHRRDRAKLRQKLMEDNKDDVVAESDASEVVSLDLNEQQQQQGEALTCDDHDQYVDNDISPKQKLEFWVQESKLDTNDHGKVTEASIDGSSSSHHRDIEVLDLELRLGQSVVKKKTT | failed
15 | MSDAVEEAEARAVEPVGAKQRDAFISYSQSKNAPLAKQLQRGLERLAVSRFRPMRMSVFRDVTSLPANHDLWQSIQRELARSRYFILLASPEAAASPWVAREVDYWLRERDTEHLLIAVASGEIVWDDRAGDFDWRKTTSLPRNLAGHFTAAPLWVDLREIGERSHHSMRYPPFRAAVATLASPLHGRPKEELEHDDFRQLRFVKRLSWSGVALLVALLVLAVYGFFDASRQREAALSQARTSASQALAARSGQLLGTSPNQAAQYALYAEETRSTPESRRALAQAVTAAPYARRRLRADADSVTDMQGASRPAATDVVLSGDGTTAAYRSVFDDDRAVRLYDVPSARQSRVVRAEGTPRALSRDGRVLAMEVYLNRVQLWDTRSGRLLSTMATGHTENLPHVGHGLHALALSPDGRWVAASHYTPEGEAFAVVWRASDGREITRVPVSDARVGLGFSADGSRLTLVDQDRREVREFRTDSARWEAARSLPGMPGSTAEALRYSEVLLFDGARKALTRTSERAEVWDLEQRRRIAVRSLGPYEDMTVADDKGIFLLGGQDGTVRLYDAALRPGTTLGRLTRPASTIAMSADGTQVVVASYGGELNLFTTGVRRGQQVAFDEKDFTFGDLTPDGRMAVHRSEGRTEFWDPATGRRLGVIPYANLSVNLEDTAYTLSGDKRYVGMQSVEGFEDEGRFDVWDLRTGRRTDCGTAVGGSSFSPIRRPGLSFLPGDRYVVGEWNGAVELLDTRTCTRSTVTEDSGRFALSGDRRTLVLLNDDGVDTWRWDGDHAFARAARTTLPSEAHPVDMSVDHEGRQAAFSDRESHVYVVRLDSGERVRATGYLPDKTDAVAFSRDGRLLFQGFMTESTRGVRVLDAGSGDQLDIWTTDPPTGSVQPNEGMQVVPGPADDILTLGPDHKVVRRTVGVGAWHDLLCGLVSQPLPARERDRYLKDLDVEDPCR | failed
16 | MAIRLTHLRKPLAYSRSFDVCIPFFRSISSFEAVEKAIKCAVETKEYLRIPELVVSLKEPYQNSTLFSFLSAFQRHHRIRVIDEILQSFVPVRPRSLPKIVYSSLLTYCLQSSDPLPLSFAILQRTLRSGCLPNPQTHLLLSDAWLERRRGSQSVADIINEMKLIGYSPDTGTCNYLVSSLCAVDKLDEAIKVVEEMSAAGCIPDVESYGAVINSLCLARKTTDVVKIVKEMVSKAGISPRKGMLTKVAAALRANREIWKAIEMIEFVESRDYPVEFESYEVVVEGCLEVREYILAGKVVMRMTDRGFIPYIKVRQKVVERLINIGEWKLACTVRQRVSELRS | failed
17 | MEIMEFEEAFKEVYEMVKPKYKLFTAGPVACFPEVLEIMKVQMFSHRSKEYRKVHMDTVERLREFLEVEKGEVLLVPSSGTGIMEASIRNGVSKGGKVLVTIIGAFGKRYKEVVESNGRKAVVLEYEPGKAVKPEDLDDALRKNPDVEAVTITYNETSTGVLNPLPELAKVAKEHDKLVFVDAVSAMGGADIKFDKWGLDVVFSSSQKAFGVPPGLAIGAFSERFLEIAEKMPERGWYFDIPLYVKYLKEKESTPSTPPMPQVFGINVALRIIEKMGGKEKWLEMYEKRAKMVREGVREIGLDILAEPGHESPTITAVLTPPGIKGDEVYEAMRKRGFELAKGYGSVKEKTFRIGHMGYMKFEDIQEMLDNLREVINELKKQKGIN | not failed
18 | MTFKQVADDWLKQYANDVKVSSVRAREKAIQHAIERFNTKPIQTIKKHDYQRFVDDISAQYSKNYVDSIVASTNMIFKYAYDTRLIKAMPSEGIKRPKKKVSVELEHHHHHH | not failed
19 | QEGIISLDTEGRVVLMNPKAEEMTGRSQNESCGLPIEDVFILWSPLQDKNQLVAINQCLAEGRHTLLPEGSQLLSSQGERQEIRCSASPIRDRDNLLTGAVVVFQDVTRARHEQRELQYQANHDMLTGLINRRRLEERLNQAISQLGQDEQHILCYVDLDYFKDVNDSAG | failed
20 | MKSSYGSSSNDLHAFVNEIKGEIQLSNINLDPYSFVSPSAYDTAWLSMIEEDINVDDNELKPMFQGCLDWIMCNQNAREGFWMNSTSYTTVADGRDEDGEKDMCILTSTLACVVALQKWNIGCFHLHKGTRYIERNTEMIIGKYINEEGSYPRWFAIKFTGILELAQKLGLHFVFSSRCIEMIKGMFYQRQEIIQREKLVHDCNYKPLLAYLEVLPSKLYVTNQEDIIVKSLDSMDGSLFQSPSATASAFMLTRNTKCLAYLQNLVQKCPNGVPQKYPLNEDLIKLSMVNLIESTGLGEFFGIEIEHVLEQVYSRYEEKDFERMPMSYLADQLHKDSLAFRMLRMHGRDVSPRSFCWFLNDQETRNHLERNIDSFLLVILSVYRATDLMFPGEHDLQEAREYTRNLLEKRRSIKEKMVPIYLNKIMHELSTPWIARLKHLDHRMWIEDKNSNVLSMEKASFLRLHSSYSDKLTHLAARNFEFQQAKYCRELEELTMWVKKWGLSDIGFGREKTTYCYFATVTSLPYEYAIKFGKLAAKTAILITIADDFFDEKGSFNDLEGLTKAVLRWEGEELKSYGNIIFRALDDIVRETANTCRTHHKTDIIVHLRNIWGETFESWLREAEWSKKGHTSSMDEYIRNGMISIAAHTIALSISCLMEPCFPHNKLKPGNYDSITTLLMIIPRLLNDLQSYQKEQEQGKMNSVLLHMKNHPGLEIEDSIAHIEKIIDSKRKEFLEHVLVDGLSDLPKPCKEIHMSCCKVFEMFFNKKNRYDSNTEMLHDIKKALYDPINVYELSEMEPMPLMAHGDEYMILPLLLNSLPNILEFKRKDGYGAMKTSMCFGRSYRVNKRVMASQLDDQHKPLKIVASQRKPVPMMQSIFAPCFY | failed
21 | MGQNQFRWSNEQLREHVEVIDGTRSPHIVLRNATYLNSYIREWMQANIWIYDDRIIYVGEKLPEQLHECEVIDCDGKYVVPSYIEPHAHPYQLYNPETLANHAMQFGTTTFINDNLTLFFTLKRELEHHHHHH | failed
